This is an account of results in PMC10786891, “Massively parallel profiling of RNA-targeting CRISPR-Cas13d”.

The labels stand for the following.
T1: EsCas13d, nuclease-dead (Eubacterium siraeum, UniProt B0MS50, R295A;H300A;R849A;H854A)
T1 sequence: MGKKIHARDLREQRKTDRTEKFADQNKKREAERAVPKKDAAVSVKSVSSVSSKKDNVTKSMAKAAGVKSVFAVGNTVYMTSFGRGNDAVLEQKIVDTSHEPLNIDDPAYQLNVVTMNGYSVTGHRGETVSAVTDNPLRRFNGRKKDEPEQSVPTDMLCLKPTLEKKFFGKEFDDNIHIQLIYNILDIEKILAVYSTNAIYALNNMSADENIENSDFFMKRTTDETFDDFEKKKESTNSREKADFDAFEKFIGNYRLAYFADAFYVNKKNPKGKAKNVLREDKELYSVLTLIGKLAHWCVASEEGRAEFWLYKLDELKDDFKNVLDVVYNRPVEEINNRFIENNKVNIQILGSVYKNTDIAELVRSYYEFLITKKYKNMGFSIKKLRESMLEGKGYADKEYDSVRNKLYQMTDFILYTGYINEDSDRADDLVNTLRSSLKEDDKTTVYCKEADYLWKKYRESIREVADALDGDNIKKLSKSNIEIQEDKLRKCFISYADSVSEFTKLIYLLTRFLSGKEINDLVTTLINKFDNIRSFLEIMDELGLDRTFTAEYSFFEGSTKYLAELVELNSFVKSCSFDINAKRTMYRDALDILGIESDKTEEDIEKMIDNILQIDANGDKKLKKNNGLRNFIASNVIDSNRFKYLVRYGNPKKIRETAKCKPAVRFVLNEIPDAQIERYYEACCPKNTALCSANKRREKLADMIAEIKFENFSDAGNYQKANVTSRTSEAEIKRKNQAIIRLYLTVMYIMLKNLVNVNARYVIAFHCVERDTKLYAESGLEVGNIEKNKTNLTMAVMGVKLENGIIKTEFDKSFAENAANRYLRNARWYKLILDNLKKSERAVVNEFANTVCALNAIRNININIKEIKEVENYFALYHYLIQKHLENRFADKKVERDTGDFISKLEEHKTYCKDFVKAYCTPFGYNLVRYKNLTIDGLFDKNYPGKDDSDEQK

B1: target 1 insA 3' of 13,insC 3' of 10 (mixed)
RNA 1: CACCCGUGCAAAAAUGCAGGGGUCUAAAACUGAGCGGAUAACCUCUCUAUGG
RNA 2: GGGAAUGGAUCCACAUCUACGAAUUCGUACCAUAGAGAGAGUUCAUCCGCUCACCGAGAUCGGAAGAGCACACGU
B2: target 1 C21U,C22U (mixed)
RNA 1: CACCCGUGCAAAAAUGCAGGGGUCUAAAACUGAGCGGAUAACCUCUCUAUGG
RNA 2: GGGAAUGGAUCCACAUCUACGAAUUCGUAUUAUAGAGAGGUUAUCCGCUCACCGAGAUCGGAAGAGCACACGU
B3: target 1 insU 3' of 22,insA 3' of 19 (mixed)
RNA 1: CACCCGUGCAAAAAUGCAGGGGUCUAAAACUGAGCGGAUAACCUCUCUAUGG
RNA 2: GGGAAUGGAUCCACAUCUACGAAUUCGUACUCAUAAGAGAGGUUAUCCGCUCACCGAGAUCGGAAGAGCACACGU
B4: target 2 MT 5'PFS CAC 3'PFS CCA (mixed)
RNA 1: CACCCGUGCAAAAUUGCAGGGGUCUAAAACCUUCUCCAAAUUGUUUCAUCCU
RNA 2: GGGAAUGGAUCCACAUCUACGAAUUCCACAGGAUGAAACAAUUUGGAGAAGCCAAGAUCGGAAGAGCACACGU
B5: target 2 MT 5'PFS GGG 3'PFS UUU (mixed)
RNA 1: CACCCGUGCAAAAUUGCAGGGGUCUAAAACCUUCUCCAAAUUGUUUCAUCCU
RNA 2: GGGAAUGGAUCCACAUCUACGAAUUCGGGAGGAUGAAACAAUUUGGAGAAGUUUAGAUCGGAAGAGCACACGU
B6: target 2 MT 5'PFS GAC 3'PFS UGU (mixed)
RNA 1: CACCCGUGCAAAAUUGCAGGGGUCUAAAACCUUCUCCAAAUUGUUUCAUCCU
RNA 2: GGGAAUGGAUCCACAUCUACGAAUUCGACAGGAUGAAACAAUUUGGAGAAGUGUAGAUCGGAAGAGCACACGU
B7: target 2 MT 5'PFS CAU 3'PFS AAA (mixed)
RNA 1: CACCCGUGCAAAAUUGCAGGGGUCUAAAACCUUCUCCAAAUUGUUUCAUCCU
RNA 2: GGGAAUGGAUCCACAUCUACGAAUUCCAUAGGAUGAAACAAUUUGGAGAAGAAAAGAUCGGAAGAGCACACGU
B8: target 2 MT 5'PFS UUG 3'PFS UCA (mixed)
RNA 1: CACCCGUGCAAAAUUGCAGGGGUCUAAAACCUUCUCCAAAUUGUUUCAUCCU
RNA 2: GGGAAUGGAUCCACAUCUACGAAUUCUUGAGGAUGAAACAAUUUGGAGAAGUCAAGAUCGGAAGAGCACACGU
B9: target 2 MT 5'PFS GAC 3'PFS UGA (mixed)
RNA 1: CACCCGUGCAAAAUUGCAGGGGUCUAAAACCUUCUCCAAAUUGUUUCAUCCU
RNA 2: GGGAAUGGAUCCACAUCUACGAAUUCGACAGGAUGAAACAAUUUGGAGAAGUGAAGAUCGGAAGAGCACACGU
B10: target 2 MT 5'PFS CAU 3'PFS AAC (mixed)
RNA 1: CACCCGUGCAAAAUUGCAGGGGUCUAAAACCUUCUCCAAAUUGUUUCAUCCU
RNA 2: GGGAAUGGAUCCACAUCUACGAAUUCCAUAGGAUGAAACAAUUUGGAGAAGAACAGAUCGGAAGAGCACACGU
B11: target 2 MT 5'PFS CAU 3'PFS AAU (mixed)
RNA 1: CACCCGUGCAAAAUUGCAGGGGUCUAAAACCUUCUCCAAAUUGUUUCAUCCU
RNA 2: GGGAAUGGAUCCACAUCUACGAAUUCCAUAGGAUGAAACAAUUUGGAGAAGAAUAGAUCGGAAGAGCACACGU
B12: target 2 MT 5'PFS AUC 3'PFS ACU (mixed)
RNA 1: CACCCGUGCAAAAUUGCAGGGGUCUAAAACCUUCUCCAAAUUGUUUCAUCCU
RNA 2: GGGAAUGGAUCCACAUCUACGAAUUCAUCAGGAUGAAACAAUUUGGAGAAGACUAGAUCGGAAGAGCACACGU
B13: target 2 MT 5'PFS GGG 3'PFS UUA (mixed)
RNA 1: CACCCGUGCAAAAUUGCAGGGGUCUAAAACCUUCUCCAAAUUGUUUCAUCCU
RNA 2: GGGAAUGGAUCCACAUCUACGAAUUCGGGAGGAUGAAACAAUUUGGAGAAGUUAAGAUCGGAAGAGCACACGU
B14: target 2 MT 5'PFS AUC 3'PFS ACA (mixed)
RNA 1: CACCCGUGCAAAAUUGCAGGGGUCUAAAACCUUCUCCAAAUUGUUUCAUCCU
RNA 2: GGGAAUGGAUCCACAUCUACGAAUUCAUCAGGAUGAAACAAUUUGGAGAAGACAAGAUCGGAAGAGCACACGU
B15: target 2 MT 5'PFS GUA 3'PFS CCG (mixed)
RNA 1: CACCCGUGCAAAAUUGCAGGGGUCUAAAACCUUCUCCAAAUUGUUUCAUCCU
RNA 2: GGGAAUGGAUCCACAUCUACGAAUUCGUAAGGAUGAAACAAUUUGGAGAAGCCGAGAUCGGAAGAGCACACGU
B16: target 2 MT 5'PFS GGG 3'PFS UUC (mixed)
RNA 1: CACCCGUGCAAAAUUGCAGGGGUCUAAAACCUUCUCCAAAUUGUUUCAUCCU
RNA 2: GGGAAUGGAUCCACAUCUACGAAUUCGGGAGGAUGAAACAAUUUGGAGAAGUUCAGAUCGGAAGAGCACACGU
B17: target 2 MT 5'PFS CAU 3'PFS AAG (mixed)
RNA 1: CACCCGUGCAAAAUUGCAGGGGUCUAAAACCUUCUCCAAAUUGUUUCAUCCU
RNA 2: GGGAAUGGAUCCACAUCUACGAAUUCCAUAGGAUGAAACAAUUUGGAGAAGAAGAGAUCGGAAGAGCACACGU
B18: target 2 MT 5'PFS CAU 3'PFS CAU (mixed)
RNA 1: CACCCGUGCAAAAUUGCAGGGGUCUAAAACCUUCUCCAAAUUGUUUCAUCCU
RNA 2: GGGAAUGGAUCCACAUCUACGAAUUCCAUAGGAUGAAACAAUUUGGAGAAGCAUAGAUCGGAAGAGCACACGU
B19: target 2 MT 5'PFS CAC 3'PFS CCU (mixed)
RNA 1: CACCCGUGCAAAAUUGCAGGGGUCUAAAACCUUCUCCAAAUUGUUUCAUCCU
RNA 2: GGGAAUGGAUCCACAUCUACGAAUUCCACAGGAUGAAACAAUUUGGAGAAGCCUAGAUCGGAAGAGCACACGU
B20: target 2 MT 5'PFS AUC 3'PFS CAU (mixed)
RNA 1: CACCCGUGCAAAAUUGCAGGGGUCUAAAACCUUCUCCAAAUUGUUUCAUCCU
RNA 2: GGGAAUGGAUCCACAUCUACGAAUUCAUCAGGAUGAAACAAUUUGGAGAAGCAUAGAUCGGAAGAGCACACGU
B21: target 2 MT 5'PFS UUG 3'PFS UCU (mixed)
RNA 1: CACCCGUGCAAAAUUGCAGGGGUCUAAAACCUUCUCCAAAUUGUUUCAUCCU
RNA 2: GGGAAUGGAUCCACAUCUACGAAUUCUUGAGGAUGAAACAAUUUGGAGAAGUCUAGAUCGGAAGAGCACACGU
B22: target 2 MT 5'PFS UUC 3'PFS CUC (mixed)
RNA 1: CACCCGUGCAAAAUUGCAGGGGUCUAAAACCUUCUCCAAAUUGUUUCAUCCU
RNA 2: GGGAAUGGAUCCACAUCUACGAAUUCUUCAGGAUGAAACAAUUUGGAGAAGCUCAGAUCGGAAGAGCACACGU
B23: target 2 MT 5'PFS GAC 3'PFS UGC (mixed)
RNA 1: CACCCGUGCAAAAUUGCAGGGGUCUAAAACCUUCUCCAAAUUGUUUCAUCCU
RNA 2: GGGAAUGGAUCCACAUCUACGAAUUCGACAGGAUGAAACAAUUUGGAGAAGUGCAGAUCGGAAGAGCACACGU

The target in this data set is T1, EsCas13d, nuclease-dead. Kind of data set: crRNA (strand 1, pre-loaded); Mg2+; 40 mM Tris-HCl pH 7.5, 150 mM NaCl, 6 mM MgCl2, 1 mM DTT, 0.1% Tween-20, 0.2 mg/ml BSA; 25 C; 10 min per concentration, then washed. Particulars: tags: His6-TwinStrep-SUMO cleaved; N-terminal SNAP kept (SNAP-Surface 488); label: 3' end held by stalled T7 RNA polymerase.
On to B1, for which the Kd was 9.2 ± 0.9 nM.
The figure for B2 is 29 ± 4 nM.
The value for B3 was 80 ± 14 nM; that for B4 was 4.5 ± 1.2 nM.
The molecule B5 had a Kd of 48 ± 12 nM.
The value for B6 was 23 ± 4 nM.
With B7, binding was put at a Kd of 4.2 ± 0.7 nM.
Consider B8, for which the Kd is ~70 nM.
The molecule B9 registered a Kd of 12.9 ± 2 nM.
The figure for B10 is 4.2 ± 0.6 nM; for B11 it is 4.4 ± 0.7 nM; for B12 it is ~41 nM.
In the case of B13, binding was put at a Kd of 14.9 ± 1.7 nM.
As for B14, the Kd was ~70 nM.
With B15, the Kd came to 9.6 ± 0.6 nM.
B16 registered a Kd of 42 ± 15 nM. This Kd lies about 4.4-fold higher than the previous one.
The value for B17 was 4.9 ± 0.7 nM; that for B18 was 4.9 ± 0.9 nM; that for B19 was ~33 nM.
Turning to B20, binding was characterised by a dissociation constant (Kd) of 78 ± 27 nM.
The figure for B21 is 27.6 ± 3.4 nM.
For the molecule B22, the Kd is ~32 nM.
The figure for B23 is 14.4 ± 2.7 nM.
